The values below come from PMC9384509.

The target in experiment [1] is human Angiotensin Converting Enzyme 2 (ACE2, amino acids 19-615) fused to human IgG Fc (human) (UniProt Q9BYF1).
Experiment [2] shares this target. Nature of the experiment: SPR. A general note: Surface plasmon resonance follows binding to a sensor surface in real time, without labels.

Substance “SARS-CoV-2 receptor binding domain (RBD, original Wuhan variant), amino acids 330-532 (domain or fragment)” yielded a reduction of the surface membrane ACE2 level on pericytes (immunohistochemistry, overlap with PDGFRβ) after 3 h of RBD (0.7 mg/l) on hamster brain slices; ACE2 is the endogenous hamster protein in experiment [1] of 32%.

With “SARS-CoV-2 receptor binding domain Y489R mutant (RBD-Y489R) (domain or fragment; other documents disagree on this pair)”, in experiment [2], the percent reduction of binding against RBD-WT was 94%.
